This note sets out measurements from US20120046329A1, “MODULATORS OF NOD1 AND NOD2 SIGNALING, METHODS OF IDENTIFYING MODULATORS OF NOD1 AND NOD2 SIGNALING, AND USES THEREOF” (Sanford-Burnham Medical Research Institute, priority 2010, published 2012).

The target in the experiment is T1, XIAP/RIP2 interaction (Homo sapiens, UniProt P98170).
T1 construct: made in house; FLAG-RIP2: transfected HEK293T lysate
The experiment in a line: GST-XIAP pull-down of FLAG-RIP2 in vitro. Type of experiment: binding. Here is the method: (A) Schematic representation of GFP-XIAP mutants. (B) Transfected HEK293T cells expressing FLAG-RIP2 together with GFP-XIAPWT, GFPXIAPE219R, GFP-XIAPH223V, GFP-XIAPE219R/H223V or GFP-control were lysed and subjected to immunoprecipitation using anti-FLAG antibody. Immunoprecipitates were analyzed by SDS/PAGE/immunoblotting using anti-FLAG and anti-GFP antibodies. Protein binding was quantified by densitometry analysis, measuring the integrated density value expressed as arbitrary units of the GFP-XIAP bands. Values are expressed as mean±SD of three independent experiments. […] Beads were analyzed by immunoblotting using anti-FLAG-HRP, anti-XIAP/anti-GST or anti-SMAC antibodies as indicated. An aliquot of lysates was also directly analyzed by immunoblotting (“input”).
In another set of experiments, for immunoprecipitation (IP), cells were lysed in IP buffer [20 mM iris pH 7.5, 135 mM NaCl, 1 mM EDTA or 1 mM EGTA (for binding assays involving NODS), 0.5% Nonidet P-40, 10% glycerol, 10 mM NaF, 1 mM DTT, 2 mM Na3VO4, 20 μM leupeptin, 1 mM PMSF, 20 mM N-ethylmaleimide, 0.5 μM iodoacetic acid, 1× protease inhibitor mix (Roche Applied Science)]. […] After incubation overnight bound immune complexes were washed four times in IP buffer, boiled in 2× Laemmli buffer and analyzed by SDS/PAGE and immunoblotted using various antibodies as specifically indicated. […]

T1 sequence (P98170 whole entry): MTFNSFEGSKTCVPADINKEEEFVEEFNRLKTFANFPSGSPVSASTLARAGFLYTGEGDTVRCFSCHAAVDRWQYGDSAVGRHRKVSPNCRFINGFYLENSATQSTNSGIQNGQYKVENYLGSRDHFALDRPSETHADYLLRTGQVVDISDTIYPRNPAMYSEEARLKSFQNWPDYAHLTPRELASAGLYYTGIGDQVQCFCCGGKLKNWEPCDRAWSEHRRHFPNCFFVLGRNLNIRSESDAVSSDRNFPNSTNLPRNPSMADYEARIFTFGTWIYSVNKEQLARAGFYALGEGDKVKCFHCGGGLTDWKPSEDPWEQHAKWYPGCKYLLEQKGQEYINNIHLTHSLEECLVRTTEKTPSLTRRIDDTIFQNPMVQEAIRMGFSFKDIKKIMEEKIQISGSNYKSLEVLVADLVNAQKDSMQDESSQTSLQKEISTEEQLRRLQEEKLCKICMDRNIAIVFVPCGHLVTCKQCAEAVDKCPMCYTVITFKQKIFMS

B1: SMAC protein: recombinant SMAC protein, dimeric, binds BIR2 and BIR3 domains of XIAP (protein, UniProt Q9NR28 22-239, looked up)
Diablo IAP-binding …: LCVPVVANFKKRCFSELIRPWHKTVTIGFGVTLCAVPIAQKSEPHSLSSEALMRRAVSLVTDSTSTFLSQTTYALIEAITEYTKAVYTLTSLYRQYTSLLGKMNSEEEDEVWQVIIGARAEMTSKHQEYLKLETTWMTAVGLSEMAAEAAYQTGADQASITARNHIQLVKLQVEEVHQLSRKAETKLAEAQIEELRQKTQEEGEERAESEQEAYLRED
modifications: His6 tag
Take B1: the “Effect on XIAP/RIP2 interaction in vitro” value is “concentration-dependent inhibition”.
